Patent US20040105862A1 (published 2004)
Where two headings read alike, the source gives them in different places.

How the values were obtained:
human TIMP-1 [1] = target: T1, human TIMP-1 (human, UniProt P01033 24-207); test: cell-based or functional assay
human TIMP-1 [2] = target: T1, human TIMP-1; test: cell-based or functional assay; remark: listed apart in the source
human TIMP-1 [3] = target: T1, human TIMP-1; test: BIAcore SPR, Fab
human TIMP-1 [4] = target: T1, human TIMP-1; test: cell-based or functional assay; remark: listed apart in the source
human TIMP-1 [5] = target: T1, human TIMP-1; test: BIAcore SPR, Fab, monovalent fit
human TIMP-1 [6] = target: T1, human TIMP-1; test: BIAcore SPR, Fab, monovalent fit; remark: listed apart in the source
rat TIMP-1 [7] = target: T2, rat TIMP-1 (rat, UniProt P30120 24-217); test: BIAcore SPR, Fab
T2 construct: Immobilised on BIAcore chip or ELISA plate; in solution in the protease assay

rat TIMP-1 [8] = target: T2, rat TIMP-1; test: cell-based or functional assay
rat TIMP-1 [9] = target: T2, rat TIMP-1; test: cell-based or functional assay; remark: listed apart in the source

T2 sequence (P30120 24-217 limits assumed): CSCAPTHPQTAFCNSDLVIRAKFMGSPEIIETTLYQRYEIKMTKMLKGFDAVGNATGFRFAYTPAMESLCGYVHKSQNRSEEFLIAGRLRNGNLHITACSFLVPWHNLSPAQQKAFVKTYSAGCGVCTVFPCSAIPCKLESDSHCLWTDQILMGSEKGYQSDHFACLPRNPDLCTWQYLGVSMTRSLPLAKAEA

B1: MS-BW-44 (Fab, V domains shown)
VH: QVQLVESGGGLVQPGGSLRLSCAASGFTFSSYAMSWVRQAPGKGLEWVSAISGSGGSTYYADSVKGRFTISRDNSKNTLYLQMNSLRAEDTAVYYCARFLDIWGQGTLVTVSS
VL: DIALTQPASVSGSPGQSITISCTGTSSDVGGYNYVSWYQQHPGKAPKLMIYDVSNRPSGVSNRFSGSKSGNTASLTISGLQAEDEADYYCQSYDFVRFMVFGGGTKLTVLG
In the case of B1, the “improvement factor (IC50) over MS-BW-3” value (human TIMP-1 [1]) is reported as 2.75 fold.

B2: MS-BW-44-2-16 (Fab, V domains shown)
VH: QVQLVESGGGLVQPGGSLRLSCAASGFTFSSYAMSWVRQAPGKGLEWVSGISGNGVLIFYADSVKGRFTISRDNSKNTLYLQMNSLRAEDTAVYYCARWFDVWGQGTLVTVSS
VL: DIALTQPASVSGSPGQSITISCTGTSSDVGGYNYVSWYQQHPGKAPKLMIYDVSNRPSGVSNRFSGSKSGNTASLTISGLQAEDEADYYCQSYDFVRFMVFGGGTKLTVLG
For B2, the “ID50 in human protease assay (modified assay)” value (“ID50 in human protease assay” for short) (human TIMP-1 [2]) was 0.0003 µM.

B3: MS-BW-44-2-4 (Fab, V domains shown)
VH: QVQLVESGGGLVQPGGSLRLSCAASGFTFSSYAMSWVRQAPGKGLEWVSGISGNGVLIFYADSVKGRFTISRDNSKNTLYLQMNSLRAEDTAVYYCARGLMDYWGQGTLVTVSS
VL: DIALTQPASVSGSPGQSITISCTGTSSDVGGYNYVSWYQQHPGKAPKLMIYDVSNRPSGVSNRFSGSKSGNTASLTISGLQAEDEADYYCQSYDFVRFMVFGGGTKLTVLG
For B3, the “ID50 in human protease assay” value (human TIMP-1 [2]) was 0.0002 µM.

B4: MS-BW-44-2-15 (Fab, V domains shown)
VH: QVQLVESGGGLVQPGGSLRLSCAASGFTFSSYAMSWVRQAPGKGLEWVSGISGNGVLIFYADSVKGRFTISRDNSKNTLYLQMNSLRAEDTAVYYCARWFDHWGQGTLVTVSS
VL: DIALTQPASVSGSPGQSITISCTGTSSDVGGYNYVSWYQQHPGKAPKLMIYDVSNRPSGVSNRFSGSKSGNTASLTISGLQAEDEADYYCQSYDFVRFMVFGGGTKLTVLG
In the case of B4, the “ID50 in human protease assay” value (human TIMP-1 [2]) is reported as 0.0002 µM.

B5: MS-BW-44-6 (Fab, V domains shown)
VH: QVQLVESGGGLVQPGGSLRLSCAASGFTFNSYAMSWVRQAPGKGLEWVSVISGNGSNTYYADSVKGRFTISRDNSKNTLYLQMNSLRAEDTAVYYCARFLDIWGQGTLVTVSS
VL: DIALTQPASVSGSPGQSITISCTGTSSDVGGYNYVSWYQQHPGKAPKLMIYDVSNRPSGVSNRFSGSKSGNTASLTISGLQAEDEADYYCQSYDFVRFMVFGGGTKLTVLG
notes: Fab
For B5, the “gain factor (IC50) over MS-BW-44” value (human TIMP-1 [1]) was 10 fold, the “affinity gain factor (Kd) over MS-BW-44” value (human TIMP-1 [3]) was 5 fold and the “ID50 in human protease assay” value (human TIMP-1 [2]) was 0.0002 µM.

B6: MS-BW-44-2 (Fab, V domains shown)
VH: QVQLVESGGGLVQPGGSLRLSCAASGFTFSSYAMSWVRQAPGKGLEWVSGISGNGVLIFYADSVKGRFTISRDNSKNTLYLQMNSLRAEDTAVYYCARFLDIWGQGTLVTVSS
VL: DIALTQPASVSGSPGQSITISCTGTSSDVGGYNYVSWYQQHPGKAPKLMIYDVSNRPSGVSNRFSGSKSGNTASLTISGLQAEDEADYYCQSYDFVRFMVFGGGTKLTVLG
notes: Fab
For B6, the “gain factor (IC50) over MS-BW-44” value (human TIMP-1 [1]) was 5 fold, the “affinity gain factor (Kd) over MS-BW-44” value (human TIMP-1 [3]) was 5 fold and the “ID50 in human protease assay” value (human TIMP-1 [2]) was 0.0004 µM.

B7: MS-BW-44-6-1 (Fab, V domains shown)
VH: QVQLVESGGGLVQPGGSLRLSCAASGFTFNSYAMSWVRQAPGKGLEWVSVISGNGSNTYYADSVKGRFTISRDNSKNTLYLQMNSLRAEDTAVYYCARFLDIWGQGTLVTVSS
VL: DIALTQPASVSGSPGQSITISCTGTSSDVGGYNYVSWYQQHPGKAPKLMIYDVSNRPSGVSNRFSGSKSGNTASLTISGLQAEDEADYYCQSYDFIRFMVFGGGTKLTVLG
B7 was tested, and the “ID50 in human protease assay” value (human TIMP-1 [2]) was 0.0002 µM.

B8: MS-BW-3 (Fab, V domains shown)
VH: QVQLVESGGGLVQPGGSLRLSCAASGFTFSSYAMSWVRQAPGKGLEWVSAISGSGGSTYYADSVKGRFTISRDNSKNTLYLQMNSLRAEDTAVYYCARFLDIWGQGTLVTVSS
VL: DIALTQPASVSGSPGQSITISCTGTSSDVGGYNYVSWYQQHPGKAPKLMIYDVSNRPSGVSNRFSGSKSGNTASLTISGLQAEDEADYYCQSYDFLRFSVFGGGTKLTVL
B8 was tested, and the “IC50 in human protease assay” value (human TIMP-1 [4]) was 0.011 µM, the Kd (human TIMP-1 [5]) was 0.013 µM and the Kd (human TIMP-1 [6]) was 0.013 µM.

B9: MS-BW-17-1 Fab (Fab, V domains shown)
VH: QVQLVQSGAEVKKPGESLKISCKGSGYSFTSYWIGWVRQMPGKGLEWMGIIYPGDSDTRYSPSFQGQVTISADKSISTAYLQWSSLKASDTAMYYCARLTNYFDSIYYDHWGQGTLVTVSS
VL: DIALTQPASVSGSPGQSITISCTGTSSDVGGYNYVSWYQQHPGKAPKLMIYDVSNRPSGVSNRFSGSKSGNTASLTISGLQAEDEADYYCQAFDVAPNGKVFGGGTKLTVLG
notes: Fab; LCDR3-optimised from MS-BW-17
With B9 the “improvement factor (affinity) over parental clone” value (rat TIMP-1 [7]) was 16.3 fold.

B10: MS-BW-17-2 (Fab, V domains shown)
VH: QVQLVQSGAEVKKPGESLKISCKGSGYSFTSYWIGWVRQMPGKGLEWMGIIYPGDSDTRYSPSFQGQVTISADKSISTAYLQWSSLKASDTAMYYCARLTNYFDSIYYDHWGQGTLVTVSS
VL: DIALTQPASVSGSPGQSITISCTGTSSDVGGYNYVSWYQQHPGKAPKLMIYDVSNRPSGVSNRFSGSKSGNTASLTISGLQAEDEADYYCQAFAVMPNVEVFGGGTKLTVLG
With B10 the “improvement factor (functional activity in the protease assay) over parental clone” value (rat TIMP-1 [8]) was 10 fold.

B11: MS-BW-63 (Fab, V domains shown)
VH: QVQLVQSGAEVKKPGESLKISCKGSGYSFTSYWIGWVRQMPGKGLEWMGIIYPGDSDTRYSPSFQGQVTISADKSISTAYLQWSSLKASDTAMYYCARILTGHVLLFDYWGQGTLVTVSS
VL: DIALTQPASVSGSPGQSITISCTGTSSDVGGYNYVSWYQQHPGKAPKLMIYDVSNRPSGVSNRFSGSKSGNTASLTISGLQAEDEADYYCQSDNPYLVFGGGTKLTVLG
With B11 the “IC50 in rat protease assay” value (rat TIMP-1 [9]) was 20000 µM.
